For 1 substance, fold decrease in affinity relative to IL-2 results are on record in patent publication US20200016206A1.

This experiment has as its target IL-2Rαβ (UniProt P01589). Kind of experiment: in vitro binding affinity against IL-2 as standard; method presumably the SPR of Example 2 (Biacore T-100, receptor-Fc captured, EC50 from RU against concentration). For orientation: SPR reads the build-up and loss of mass on a sensor chip optically.
UniProt P01589, sequence (P01589 22-213 limits assumed): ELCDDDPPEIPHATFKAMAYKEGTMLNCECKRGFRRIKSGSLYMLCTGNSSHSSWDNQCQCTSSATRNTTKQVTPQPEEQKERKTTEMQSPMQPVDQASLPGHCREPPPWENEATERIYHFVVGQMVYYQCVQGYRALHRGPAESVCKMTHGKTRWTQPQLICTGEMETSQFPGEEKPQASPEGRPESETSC

The substance “RSLAIL-2 (rIL-2 with the aldesleukin sequence, releasably PEGylated with mPEG2-C2-Fmoc-20kD-NHS) (from UniProt P60568 22-153) (ligand)” had a fold decrease in affinity relative to IL-2 of 60 fold.
